Molecular target: connexin-50 (native, sheep lens) (sheep) (UniProt P55917)
Assay: cryo-EM structure; native Cx46/50 intercellular channels from sheep lens in a pair of MSP1E1/DMPC nanodiscs; 20 mM HEPES pH 7.4, 150 mM NaCl; single-particle reconstruction with D6 symmetry, 1.90 Å (2.3 Å without symmetry); the two isoforms could not be told apart by image classification

subunits in the intercellular channel (Cx46 and Cx50 together): 12
Substance: connexin-46 (native, sheep lens) (from UniProt Q9TU17 1-413) (natural protein)
